Assay results published in patent US20240383999A1 (University of Texas, published 2024).
Where a chain is given by its changes, count along the chain named. Values belong to the binder of their own block, whether it stands above or below them.

How the values were obtained:
[1] = target: T1, Human recombinant CD5L protein (Sino Biological, Catalog Number 10791-H08H) (human, UniProt O43866 20-347); assay: titration ELISA, human CD5L coated on plate
T1 construct: Bought protein; also called human CD5L; CD5L-His; not shown: 6xHIS-tag
T1 sequence (looked up): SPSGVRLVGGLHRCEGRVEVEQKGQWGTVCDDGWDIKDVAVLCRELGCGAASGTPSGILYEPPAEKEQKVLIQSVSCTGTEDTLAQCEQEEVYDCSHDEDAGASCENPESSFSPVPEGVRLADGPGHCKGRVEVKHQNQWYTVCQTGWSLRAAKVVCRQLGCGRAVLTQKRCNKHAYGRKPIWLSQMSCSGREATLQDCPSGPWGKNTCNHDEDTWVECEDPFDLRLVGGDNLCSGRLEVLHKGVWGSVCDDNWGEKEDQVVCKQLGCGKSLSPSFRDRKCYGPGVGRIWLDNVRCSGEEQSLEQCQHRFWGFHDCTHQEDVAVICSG
Protocol: FIG. 11. […] Bound antibody was detected using a secondary antibody against rabbit IgG conjugated with HRP and TMB substrate for detection of A450 nm. EC₅₀ was estimated using GraphPad software by applying a 4-parameter fitting to calculate binding affinity of the antibodies.
Binding constants (EC₅₀) of a panel of monoclonal antibodies were estimated by titration ELISA, and the data were analyzed using the 4-parameter curve fitting with GraphPad Prism program (Table 6).

[2] = target: T1, Human recombinant CD5L protein (Sino …); assay: BLI (Octet RED96), antibody on Protein A biosensors, CD5L-His in solution, global fit
Protocol: Kinetic binding parameters (KD, kon, and koff) in (Table 11) were determined using Octet RED96 instrument and binding curves are shown in FIG. 17. […] KDs are calculated using Octet software with global fitting model.

[3] = target: T1, Human recombinant CD5L protein (Sino …); assay: BLI (Octet RED96), antibody on protein A biosensors, CD5L 0.1-200 nM in solution, 1:1 fit
Protocol: All experiments were performed with shaking at 1,000 rpm. Background wavelength shifts were measured from reference biosensors that were loaded only with antibody. ForteBio's data analysis software was used to fit the data to a 1:1 binding model to extract an association rate and dissociation rate.

B2: R-4 (antibody, V domains shown)
VH: QSVEESGGRLVTPGTPLTLTCTASGFSLSSYYMTWVRQAPGKGLEYIGIISDRGSTYYASWAKGRFTIAKTSSTTVDLKLTSLTTEDTATYFCYRGVDGSGGYAAGDLWGQGTLVTISS
VL: ELVLTQTPASVEAAVGGTVTIKCQASEDIYSYFAWYQQKPGQRPRLLIYEASKVASGVPSRFKGGGSGTQFTLTISDLECADAATYYCQNNFYMIGDDYGGTFGGGTEVEIK
EC50 [1]: 0.0713 µg/mL

B3: CD5L-35Hu-1 (antibody, V domains shown)
VH: QVQLVESGGGVVQPGRSLRLSCAASGIDLSDYYMTWVRQAPGKGLEYIGIIYASGNAYFASWAKGRFTISRDSSTNTLFLQMNSLRAEDTAVYYCARNIGGSSNLWGQGTLVTVSS
VL: AIQLTQSPSSLSASVGDRVTITCQASERIYNNLAWYQQKPGKAPKLLFYSASTLASGVPSRFSGSGSGTDFTLTISSLQPEDFATYYCQCTGYGTTYGLVFGGGTKVEIK
notes: also called humanized CD5L-35Hu mAb (CD5L-35Hu-H1 + CD5L-35Hu-K1)
Kd [2]: < 1 pM | koff [2]: < 1e-07 s⁻¹ | kon [2]: 146000 M⁻¹ s⁻¹

B4: CD5L-35Hu-3 (antibody, V domains shown)
VH: B3 VH with S73N, L78V
VL: B3 VL
notes: also called humanized CD5L-35Hu mAb (CD5L-35Hu-H2 + CD5L-35Hu-K1)
Kd [2]: < 1 pM | koff [2]: < 1e-07 s⁻¹ | kon [2]: 119000 M⁻¹ s⁻¹

B5: CD5L-35Hu-4 (antibody, V domains shown)
VH: B3 VH with S73N, L78V
VL: B3 VL with A1E, I2L, S7T, T22K
notes: also called humanized CD5L-35Hu mAb (CD5L-35Hu-H2 + CD5L-35Hu-K2)
Kd [2]: < 1 pM | koff [2]: < 1e-07 s⁻¹ | kon [2]: 106000 M⁻¹ s⁻¹

B6: CD5L-35Hu-2 (antibody, V domains shown)
VH: B3 VH
VL: B3 VL with A1E, I2L, S7T, T22K
notes: also called humanized CD5L-35Hu mAb (CD5L-35Hu-H1 + CD5L-35Hu-K2)
Kd [2]: < 1 pM | koff [2]: < 1e-07 s⁻¹ | kon [2]: 125000 M⁻¹ s⁻¹

B7: R-11 (antibody, V domains shown)
VH: QSVKESGGDLVKPGASLTLTCTASGFDFSSNTMCWVRQAPGKGLEYIGYISYSGATHYASWAKGRFTISKTLSTTVTLQMTSLTDADTATYFCARDRGYVDGSYYGDFNLWGPGTLVTVSS
VL: ELVMTQTPSSASEPVGGTVTIKCQASQSIASRLAWFQQKPGQPPKLLIYRASTLESGVSSRFKGSGFGTEFTLTISDLECADAATYYCQSYYGSGYGKTFGGGTDVVVK
EC50 [1]: 0.0474 µg/mL

B11: R-5 (antibody, V domains shown)
VH: QSVKESGGRLVTPGTPLTLTCTVSGFSLSSYAMSWVRQAPGKGLEWIGVIDVTGRTYYASWAKGRFTISKTSTTVDLKITSPTTEDTATYFCGRDSYLDYGDPNGLDPWGPGTLVTISS
VL: ELVMTQTPASVEAAVGGTVTIKCQASQSIGSNLAWYQQKPGQPPKLLIYTASNLAPGVSSRFKGSRSGTESTLIISDLECADAATYYCQCTYYGTSYMELGAFGGGTELEIK
EC50 [1]: 0.148 µg/mL

B12: R-18 (antibody, V domains shown)
VH: QSVKESGGRLVTPGTPLTLTCTVSGFSLSNYAMSWVRQAPGKGLEWIGIIVTSGSTYYASWAKGRFTISKTSTTVDLKMTSLTAADTATYFCARHAYSIGSSLWGQGTLVTISS
VL: ELDLTQTPPSASEPVGGTVTIKCQASESISVRLAWYQQKPGQPPKLLIYKASNLPSGVPSRFKGSGSGTEFTLTISDLECDDAATYYCRNYYDISNNGAGFGGGTEVEIK
Kd [3]: 1560 pM | EC50 [1]: 0.19 µg/mL

B14: R-9 (antibody, V domains shown)
VH: QSVKESGGRLVTPGTPLTLTCTVSGFYLSTHGMTWVRQAPGKGLEYIGVIVTSGNTYYATWATGRFTISKTSTTVDLKITSPTTEDTATYFCARPGYKSVPLWGQGTLVTISS
VL: ELDLTQTPASVSAAVGGTVTINCQASEDIYSGLTWYQQKPGQPPKLLIYRASTLASGVPPRFKGSGSGTEFTLTISDLECDDAATYYCQNNYGSSSNNYVFAFGGGTEVEIK
EC50 [1]: 0.136 µg/mL

B16: R-10 (antibody, V domains shown)
VH: QSVKESGGRLVTPGTPLTLTCTLSGIDLSSYAMGWVRQAPGKGLEYIGIIGASGTTYYANWAKGRFTISRTSTTVDLKITSPTTEDTATYFCARAGYAGTGYPTRLDLWGQGTLVTISS
VL: ELDMTQTPASVEAAVGGTVTIKCQASQSISSSYLAWYQQKPGQPPKLLIYKASTLESGVPSRFSGSGSGTEFTLTISGVQCDDAATYYCLGGYFSFSNYDYGFGGGTEVEIK
EC50 [1]: 0.307 µg/mL

B18: R-6 (antibody, V domains shown)
VH: QSLEESGGRLVTPGTPLTLTCTVSTIDVSKYAVIWVRQAPGKGLEYIGIISSSGSTYYASWAKGRFTISKTSSTTVDLKMTSPTAEDTATYFCARGGNGVAFKLWGQGTLVTISS
VL: ELDMTQTPASVEAAVGGTVTINCQASESINDRLAWYQLKPGQPPKLLIYETSQVESGVPSRFSGSGSGTQFTLTISDLECADAATYYCQSHDYISSSGMPFGGGTEVVVK
EC50 [1]: 0.187 µg/mL

B19: H-119 (antibody, V domains shown)
VH: EVQLVQSGAEVKKPGESLKISCKGSGYSFTSYWIGWVRQMPGKGLEWMGIIYPGDSDTRYSPSFQGQVTISADKSISTAYLQWSSLKASDTAMYYCARGLAASTRFDPWGQGTLVTVSS
VL: DVQMTQSPSSLSASVGDRVTITCRPSQSINNYLNWYQQKPGEAPKLLIYAASNLQSGVPSRFSGSGSGTDFTLTISSLQPEDFGTYYCQQSYSIPLTFGGGTTVEIK
EC50 [1]: 0.0068 µg/mL

B20: R-1 (antibody, V domains shown)
VH: QSVEESGGRLVTPGTPLTLTCTVSGIDLSNYAINWVRQAPGKGLEWIGMISSGDVTYYASWAKGRFIISRTSSTTVDLKMTSPTIEDTATYFCARFFAGRSESLWGQGTLVTVSS
VL: ELDLTQTPSSVSAAVGGTVTINCQSSQSVNKNNYLSWYQQKPGQPPKLLIYSASALASGVSSRFSGSGSGTEFTLTISDVQCDDAATYYCQGTYYDSGWYNAFGGGTEVEIK
EC50 [1]: 0.0598 µg/mL

The next lines start with the values.

EC50 [1]: 0.246 µg/mL
B1: R-39 (antibody, V domains shown)
VH: QSLEESGGRLVTPGGSLTLTCTVSGIDLSSYTMGWVRQAPGKGLEWIGVIAINGGTVYASWAKGRFTISKTSTTVDLKMTSPTPEDTATYFCARGAGKTWSSFNLWGQGTLVTISS
VL: ELVLTQTPASVSEPVGGTVTIKCQASQSIGSNLAWYQQKPGQPPKLLIYRASTLESGVPSRFSGSGSGTEFTLTISDLECADAATYYCQSYYGSSTNAFGGGTEVVVK

EC50 [1]: 0.161 µg/mL
B8: R-29 (antibody, V domains shown)
VH: QSVEESGGRLVTPGTPLTLTCTVSGFSLSSYAMNWVRQAPGKGLEWIGLIYASGTTHYASWVNGRFTISKTSTTVTLKMTSLTAADTATYFCARDSYSTGNLWGQGTLVTISS
VL: ELVLTQTPASVSEPVGGTVTIKCQASQSIYSSLVWYQQKPGQPPKLLIYGASNLESGVPSRFKGSGSGTEYTLTISGVQCADAATYYCQCSGYNSRVFGGGTEVEIK

EC50 [1]: 0.278 µg/mL
B9: R-36 (antibody, V domains shown)
VH: QSVKESGGGLFQPGGSLALTCKASGFSLSKNYVMCWVRQAPGKGLEWIACIYAGDGNTYYVSWAKGRFTISKTSSTTVTLQMTSLTAADTATYFCARWDYIGNNNLWGPGTLVTISS
VL: ELVLTQTPASVEAAVGGTVTIKCQASQTISSYLAWYQQKPGQPPKLLIYRASTLASGVPSRFKGSGSGTQFTLTISDLECADGATYYCQCPYYGSSHVGAFGGGTEVVVK

EC50 [1]: 0.0077 µg/mL
B10: R-49 (antibody, V domains shown)
VH: QSVKESGGRLVTPGTPLTLTCTVSGFSLSINAINWVRQAPGKGLEWIGIITNIGNTYYASWAKGRFTISRTSTTVDLTMTSLTTEDTATYFCARNSYFDPWGPGTLVTISS
VL: ELVLTQTPSPVSAAVGGTVSISCQASQSVDSNNYCSWYQQKPGQPPKLLIHKASKLASGVPSRFKGSGSGTQFTLTINDLECDDAATYYCAGGLGDNIYAFGGGTEVEIN

EC50 [1]: 0.21 µg/mL
B13: R-21 (antibody, V domains shown)
VH: QSVEESGGRLVTPGTPLTLTCTVSGIDLSSYAINWVRQAPGEGLEWIGMISSSDNTYYANWAKGRFTISRDSTTVDLKITSPTTEDTATYFCARFYAGRSYSLWGQGTLVTISS
VL: ELDLTQTPASVSAAVGGTVTISCQSSESVYKSNYLSWYQQKAGQPPKLLIYAAATLASGVPSRFKGSGSGTQFTLTISGVQCDDAATYYCQGTYYSSGWYNAFGGGTEVVVK

EC50 [1]: 0.14 µg/mL
B15: R-23 (antibody, V domains shown)
VH: QSVEESGGRLVMPGGSLTLTCTVSGIDLSSNTMGWFRQAPGKGLEWIGIMRGGGSTYYATWAKGRFTISKTSTTVDLKLTSPTTEDTATYFCARAFPGYNSFFNFWGQGTLVTISS
VL: ELDLTQTPASVSEPVGGTVTIKCQASHNINSALAWYQQKPGQPPKLLIYKASTLASGVPPRFKGSGSGTEFTLTISDLECADAATYYCQRHYFDGASADIAFGGGTEVVVK

EC50 [1]: 0.0144 µg/mL
B17: R-51 (antibody, V domains shown)
VH: B18 VH with L3V, E4K
VL: ELDLTQTPASVEAAVGGTVTINCQASQSIYSSLAWYQQKPGQPPKLLIYETSKVESGVPSRFSGSGSGTQFTLTISDLECADAATYYCQSHDYISSSGMPFGGGTELEIL
